Consider four substances from patent publication US20070248602A1.

Assay [1] has as its target human FcγRIIIa (FIG. 41 data; allotype not given) (human) (UniProt P08637). As to the kind of experiment: AlphaScreen competition. For orientation: Alpha assays give light when donor and acceptor beads are brought close together.
Assay [2] has as its target FcγRIIIa on human PBMCs expressing heterozygous V158/F158 FcγRIIIa (human) (UniProt P08637). As to the kind of experiment: cell-based or functional assay.

human FcγRIIIa (FIG. 41 data; allotype not given) (human), sequence (P08637 17-208): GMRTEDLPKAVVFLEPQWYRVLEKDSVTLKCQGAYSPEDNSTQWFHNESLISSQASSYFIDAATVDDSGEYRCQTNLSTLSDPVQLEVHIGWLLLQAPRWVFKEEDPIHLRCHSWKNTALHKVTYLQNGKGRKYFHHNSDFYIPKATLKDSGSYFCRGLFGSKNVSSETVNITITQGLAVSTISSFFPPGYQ
FcγRIIIa on human PBMCs expressing heterozygous V158/F158 FcγRIIIa (human), sequence (P08637 17-254): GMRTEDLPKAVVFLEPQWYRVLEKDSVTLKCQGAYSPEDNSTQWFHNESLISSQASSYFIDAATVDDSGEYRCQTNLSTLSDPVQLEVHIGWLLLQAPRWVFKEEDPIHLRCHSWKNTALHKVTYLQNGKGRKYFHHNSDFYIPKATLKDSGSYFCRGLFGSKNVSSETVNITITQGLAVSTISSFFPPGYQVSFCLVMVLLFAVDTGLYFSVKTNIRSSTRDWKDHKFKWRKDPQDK

With “S239D/A330L/I332E Fc variant (FIG. 41 data, antibody context not told in the text)”, in assay [1], the FcγRIIIa-fold turned out to be 139 fold and the FcγRIIIa-fold:FcγRIIb-fold was 18.
As to “S239D/I332E Fc variant (FIG. 41 data, antibody context not told in the text)”, the FcγRIIIa-fold in assay [1] was found to be 192 fold.
In assay [2], S239D/I332E alemtuzumab (antibody) came in with an ADCC EC50, DoHH-2 target cells of 3 ng/mL; an ADCC Fold WT, DoHH-2 target cells of 3.3 fold; an ADCC log(EC50), DoHH-2 target cells of 0.49.
In assay [2], V264I/I332E alemtuzumab (antibody) displayed an ADCC EC50, DoHH-2 target cells of 4 ng/mL and an ADCC log(EC50), DoHH-2 target cells of 0.6.
